Earlier results as cited in PMC6783463.

Molecular target: PTH (15-34) 15-34 (Homo sapiens) (UniProt P01270)
Details: cited from earlier work

UniProt P01270, sequence (P01270 15-34): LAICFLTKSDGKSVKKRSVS

For PTH1R ECD (from UniProt Q03431), the Kd is given as 1000 nM.
